# Experimental data as given in US5854204A, “Aβ peptides that modulate β-amyloid aggregation” (priority 1996, dated 1998).
# How the values were obtained:
# Aβ peptide = Aβ peptide (Homo sapiens, UniProt P05067); details: Camilleri et al. (1994); cited from earlier work
# natural β-AP (β-AP1-40) = target: T1, natural β-AP (β-AP1-40) (Homo sapiens, UniProt P05067); assay: Optical density (turbidity, A400 nm) aggregation assay; type: biochemical
# T1 construct: Natural β-AP (β-AP1-40) was obtained commercially from Bachem (Torrance, Calif.); purchased Bachem (Torrance, Calif.)
# T1 sequence (P05067 672-711): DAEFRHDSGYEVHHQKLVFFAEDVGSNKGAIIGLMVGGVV
# Experimental: In one assay, β-AP aggregation was measured by determining the increase in turbidity of a solution of natural β-AP over time in the absence or presence of various concentrations of the modulator. Turbidity of the solution was quantitated by determining the optical density at 400 nm (A400 nm) of the solution over time.
# The aggregation of natural β-AP in the absence of modulator was determined as follows. β-AP1-40 was dissolved in hexafluoro isopropanol (HFIP; Aldrich Chemical Co., Inc.) at 2 mg/ml. Aliquots of the HFIP solution (87 μl) were transferred to individual 10 mm×75 mm test tubes. A stream of argon gas was passed through each tube to evaporate the HFIP. To the resulting thin film of peptide, dimethylsulfoxide (DMSO; Aldrich Chemical Co., Inc.) (25 μl) was added to dissolve the peptide. A 2 mm×7 mm TEFLON™-coated magnetic stir bar was added to each tube. Buffer (475 μL of 100 mM NaCl, 10 mM sodium phosphate, pH 7.4) was added to the DMSO solution with stirring. The resulting mixture was stirred continuously and the optical density was monitored at 400 nm to observe the formation of insoluble peptide aggregates.
# Alternatively, β-AP1-40 was dissolved in DMSO as described above at 1.6 mM (6.9 mg/ml) and aliquots (25 μl) were added to stirred buffer (475 μl), followed by monitoring of absorbance at 400 nm. […]
# β-AP1-40 = target: T2, β-AP1-40 (Homo sapiens, UniProt P05067); assay: Static aggregation assay (SDS-PAGE); type: biochemical
# T2 construct: Natural β-AP (β-AP1-40) was obtained commercially from Bachem (Torrance, Calif.); purchased Bachem (Torrance, Calif.)
# T2 sequence (P05067 672-711): as above
# Experimental: In a third assay, β-AP aggregation was measured by visualization of the peptide aggregates using SDS-polyacrylamide gel electrophoresis (SDS-PAGE). In this assay, β-AP solutions were allowed to aggregate over a period of time and then aliquots of the reaction were run on a standard SDS-PAGE gel. Typical solution conditions were 200 μM of β-AP1-40 in PBS at 37° C. for 8 days or 200 μM β-AP1-40 in 0.1M sodium acetate at 37° C. for 3 days. The peptide aggregates were visualized by Coomassie blue staining of the gel or, for β-AP solutions that included a biotinylated β-AP modulator, by western blotting of a filter prepared from the gel with a streptavidin-peroxidase probe, followed by a standard peroxidase assay. The β-AP aggregates are identifiable as high molecular weight, low mobility bands on the gel, which are readily distinguishable from the low molecular weight, high mobility β-AP monomer or dimer bands.
# Sequence of Aβ peptide (P05067 672-711 limits assumed): as the sequence (P05067 672-711) above
"aggregation of natural β-AP1-40 (turbidity, optical density at 400 nm) (natural β-AP (β-AP1-40); modulator at 1% in the natural β-AP1-40 solution)","aggregation of natural β-AP1-40 (turbidity, optical density at 400 nm) (natural β-AP (β-AP1-40); modulator at 5% in the natural β-AP1-40 solution)",Compound,fibril formation in vitro (Aβ peptide),aggregation of mixture with natural β-AP1-40 (high molecular weight aggregates on SDS-PAGE) (β-AP1-40; mixture of natural β-AP1-40 and modulator),"self-aggregation of the modulator (high molecular weight aggregates on SDS-PAGE) (β-AP1-40; modulator alone, no natural β-AP)"
–,–,OC[C@H]1O[C@@H]2O[C@H]3[C@H](O)[C@@H](O)[C@@H](O[C@H]4[C@H](O)[C@@H](O)[C@@H](O[C@H]5[C@H](O)[C@@H](O)[C@@H](O[C@H]6[C@H](O)[C@@H](O)[C@@H](O[C@H]7[C@H](O)[C@@H](O)[C@@H](O[C@H]8[C@H](O)[C@@H](O)[C@@H](O[C@H]1[C@H](O)[C@H]2O)O[C@@H]8CO)O[C@@H]7CO)O[C@@H]6CO)O[C@@H]5CO)O[C@@H]4CO)O[C@@H]3CO [β-cyclodextrin],inhibit fibril formation in vitro,–,–
markedly inhibited,similarly inhibited aggregation,N-biotinyl-βAP1-40,–,reduced amounts of the peptide mixture associated into high molecular weight aggregates,few if any high molecular weight aggregates were observed
